Laboratory results reported in paper PMC11629607, “Nanobodies against the myelin enzyme CNPase as tools for structural and functional studies” (Journal of Neurochemistry, 2024).

T1: TOM70-EGFP-CNPase-ALFAtag (Mus musculus (assumed))
T1 construct: 2′,3′-cyclic nucleotide 3′-phosphodiesterase (CNPase), catalytic domain; also called TOM70‐EGFP‐CNPase (catalytic domain); CNPase anchored to mitochondria; source: COS-7, co-transfected (pcDNA3.1, synthetic gene), in cells; not shown: TOM70 (anchor to the mitochondrial outer membrane), N-terminal, kept; EGFP, internal (between TOM70 and CNPase), kept
T1 chain: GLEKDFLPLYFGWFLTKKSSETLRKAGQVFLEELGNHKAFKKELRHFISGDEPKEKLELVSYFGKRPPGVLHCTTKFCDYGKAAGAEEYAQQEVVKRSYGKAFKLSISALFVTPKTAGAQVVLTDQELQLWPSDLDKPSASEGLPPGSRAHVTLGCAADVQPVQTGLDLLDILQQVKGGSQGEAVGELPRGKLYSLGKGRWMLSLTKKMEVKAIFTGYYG

B1: iNbCNP 5E fused to mRuby3 (VHH)
VHH: EVQLLESGGGSVQAGGSLRLSCAASGFTVGDYAIGWFRQAPGQQREAVACISTDDGDTYYADSVKGRFTISSDNAKKTAYLEMNNLKPEDTAVYHCAVDGWDSSCTFYSPSYYRDFSDHGAWGQGTQVTVSS
notes: as the VHH of m5; also called NbCNP 5E-mRuby3; source: COS-7, co-transfected, in cells; not shown: mRuby3, C-terminal, kept
B2: iNbCNP 8D fused to mRuby3 (VHH)
VHH: EVQLEESGGGLVQPGGSLRLSCAASGFTFSSYVMSWVRQAPGKGLEWVSDINSGGSRTYYTDSVKGRFTISRDNAKNTLYLQMNSLKPEDTAVYYCARDSLLSTRYLHTSERGQGTQVTVSS
notes: VHH of NbCNP 8D; also called NbCNP‐8D‐mRuby3; source: COS-7, co-transfected, in cells; not shown: mRuby3, C-terminal, kept
B3: iNbCNP 10E fused to mRuby3 (VHH)
VHH: EVQLEESGGGLVQPGGSLRLSCAVSGITLDDFGIGWFRQAPGKEREGVACISPGYEHIYYADSAKGRFTISRDNAKNTVYLQMNNLKPWDTGVYYCAADNDLPDRLWGGSDWSDPSPYDYWGQGTQVTVSS
notes: as the VHH of m9; also called NbCNP 10E-mRuby3; source: COS-7, co-transfected, in cells; not shown: mRuby3, C-terminal, kept
B4: anti-CNPase nanobody NbCNP 10E (VHH)
VHH: B3 VHH
notes: Purified as described for anti-Arc Nbs (Markusson et al., 2022); source: E. coli, pTH27 vector, purified (SEC, TEV, reverse NiNTA, SEC); not shown: His6, N-terminal, cleaved
B5: anti-CNPase nanobody NbCNP 5E (VHH)
VHH: B1 VHH
notes: Extra disulphide between CDR2 and CDR3; also called Nb5E; source: E. coli Shuffle T7, His6-MaBP fusion (pHMGWA), purified (NiNTA, TEV, reverse NiNTA, SEC); not shown: His6, N-terminal, cleaved
B6: MaBP-8D (NbCNP 8D fusion with the intact His6-MaBP) (VHH)
VHH: B2 VHH
B7: anti-CNPase nanobody NbCNP 8D (VHH)
VHH: B2 VHH
notes: this construct has a short, extended tail; The batch from the His14-bdSUMO system was used for structural work; also called Nb 8D; source: E. coli SHuffle Express, His14-bdSUMO fusion, purified (Ni2+ beads, eluted by bdSENP1 cleavage)
B8: anti-CNPase nanobody NbCNP 7E (VHH)
VHH: EVQLEESGGGWVHPGGSLRLSCAASGNVFGVNTMAWYRQAPGKQREQRELVASITDYGTTEYADSVKGRFTISGDNAKATVYLQMNSLKPEDTAVYYCNMDLTVMTATSSLYAYDYWGQGTQVTVSS
notes: source: E. coli Shuffle T7, His6-MaBP fusion (pHMGWA), purified (NiNTA, TEV, reverse NiNTA, SEC); not shown: His6, N-terminal, cleaved
B9: anti-CNPase nanobody NbCNP 8C (VHH)
VHH: EVQLEESGGGLVQAGGSLTLSCAASGFTFDDYAMGWYRQAPGKERVGVSCISRTDGYTYYLDSVKGRFTISTDHAKHTVYLQMNNLKPDDTGLYYCAADADPEYGSRCPDPYYGMDYWGKGILVTVSS
notes: Extra disulphide between CDR2 and CDR3; source: E. coli Shuffle T7, His6-MaBP fusion (pHMGWA), purified (NiNTA, TEV, reverse NiNTA, SEC); not shown: His6, N-terminal, cleaved
B10: MaBP-10E (His6-maltose-binding protein fusion of NbCNP 10E) (VHH)
VHH: B3 VHH
notes: as the VHH of m9; source: E. coli Shuffle T7, pHMGWA vector, purified; not shown: His6, N-terminal, kept

Biological target: T1, TOM70-EGFP-CNPase-ALFAtag
Experiment: recruitment to a mitochondria-anchored target (co-localisation by confocal microscopy); COS-7 cells co-transfected with TOM70-EGFP-CNPase and an iNb fused to mRuby3; fixed ca. 16 h after transfection; Pearson's correlation, N = 9 cells
Details: partners not purified

B1: binds.
B2: binds.
B3: binds.

Each binder was assayed against T2, full-length mouse CNPase (Mus musculus (mouse), UniProt P16330) (assay: enzyme inhibition kinetics (Dixon plot); apparent Ki; 2′,3′-cNADP+ hydrolysis by full-length mCNPase, coupled assay; 100 mM Bis-Tris pH 6.0, 10 mM MgCl2; +25°C). Details: both partners purified.
T2 construct: 2′,3′-cyclic nucleotide 3′-phosphodiesterase (CNPase), mouse, full-length; also called mCNPase; full-length mCNPase; source: E. coli Rosetta (DE3), pTH27 vector, autoinduction, purified (SEC)
T2 sequence (P16330 whole entry): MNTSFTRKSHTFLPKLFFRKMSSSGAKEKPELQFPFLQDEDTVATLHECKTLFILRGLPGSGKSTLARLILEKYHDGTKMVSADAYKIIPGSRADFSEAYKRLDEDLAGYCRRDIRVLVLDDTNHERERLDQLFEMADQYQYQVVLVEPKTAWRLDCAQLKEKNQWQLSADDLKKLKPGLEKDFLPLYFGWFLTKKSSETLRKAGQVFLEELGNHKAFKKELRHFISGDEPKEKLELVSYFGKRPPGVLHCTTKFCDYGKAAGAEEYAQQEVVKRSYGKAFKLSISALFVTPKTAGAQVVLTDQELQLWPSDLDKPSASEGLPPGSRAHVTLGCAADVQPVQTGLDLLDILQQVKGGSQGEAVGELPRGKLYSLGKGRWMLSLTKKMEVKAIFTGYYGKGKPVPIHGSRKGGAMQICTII

B4 was tested, and the Ki was 0.604 nM.

What follows are binders tested against T3, mouse CNPase catalytic domain (mouse, UniProt P16330) (assay: SEC-SAXS; Nb mixed with the CNPase catalytic domain in 1.3-fold molar excess; 20 mM HEPES, 150 mM NaCl, 0.5 mM TCEP, pH 7.5). Details: not given.
T3 construct: 2′,3′-cyclic nucleotide 3′-phosphodiesterase (CNPase), mouse, catalytic (C-terminal phosphodiesterase) domain; As used in ITC, crystallisation and SEC-SAXS; also called mCNPase catalytic domain; C-terminal phosphodiesterase domain; source: E. coli Rosetta (DE3), pTH27 vector, autoinduction, purified (SEC)

B5 and B6 are the same in stoichiometry N: 1 for the first, 1 for the second.

B7 was tested, and the stoichiometry N was 1.

Same assay, conditions: both partners purified

B8 and B9 are the same in “stoichiometry N” value: 1 for the first, 1 for the second.

The binders below were run against T2, full-length mouse CNPase (assay: DSF thermal shift (SYPRO-Orange); full-length CNPase with Nb; 20 mM HEPES, 150 mM NaCl, 0.5 mM TCEP, pH 7.5; 20–95°C; N = 3). Details: both partners purified.

Compared with B5, B7 is higher in “∆Tm” value: 17 °C for the first, 18 °C for the second.

First: B4
Second: B8
The “∆Tm” value of the first is higher: 4.2 °C for the first, 2.1 °C for the second.

In the case of B9, the “∆Tm” value is reported as 9.2 °C.

The binders below were run against T2, full-length mouse CNPase (assay: nanoDSF thermal shift (Trp fluorescence); complex prepared by SEC, 2 mg/mL; 20 mM HEPES, 200 mM NaCl, 0.5 mM TCEP, pH 7.5). Details: both partners purified.

In the case of B7, the “∆Tm” value is reported as 17.7 °C.

The binders below were run against T3, mouse CNPase catalytic domain (assay: ITC; 8.5–11 μM CNPase catalytic domain in the cell, 88–95 μM Nb in the syringe; 20 mM HEPES, 150 mM NaCl, 0.5 mM TCEP, pH 7.5; +25°C; 1:1 binding model; single experiments). Details: not given.

First: B5
Second: B6
The Kd of the first is 11-fold higher: 2.2 nM for the first, 0.2 nM for the second.

Work on B7 yielded a Kd of 2.5 nM.

Going from B5 to B6, the dH rises from -13.8 kcal/mol to -11 kcal/mol.

Work on B7 yielded a dH of -11 kcal/mol.

First: B5
Second: B6
The stoichiometry N of the first is lower: 0.82 for the first, 0.837 for the second.

Work on B7 yielded a stoichiometry N of 0.8.

Same assay, conditions: both partners purified

First: B4
Second: B8
The Kd of the first is 8.5-fold lower: 9.8 nM for the first, 83.3 nM for the second.

B9 and B10 are within 1.5-fold of each other in Kd: 16.6 nM for the first, 13.4 nM for the second.

Going from B4 to B8, the dH falls from -12.1 kcal/mol to -14.2 kcal/mol.

Compared with B9, B10 is lower in dH: -7.07 kcal/mol for the first, -18.1 kcal/mol for the second.

Going from B4 to B8, the “stoichiometry N” value rises from 0.804 to 0.863.

Compared with B9, B10 is lower in “stoichiometry N” value: 0.914 for the first, 0.836 for the second.
